In a protein production outcome set (Wang et al. 2014):

Assay: label from the status in PepcDB records

Sequence | protein production
MGHHHHHHSHMTDCEFGYIYRLAQDYLQCVLQIPQPGSGPSKTSRVLQNVAFSVQKEVEKNLKSCLDNVNVVSVDTARTLFNQVMEKEFEDGIINWGRIVTIFAFEGILIKKLLRQQIAPDVDTYKEISYFVAEFIMNNTGEWIRQNGGWENGFVKKFEPK | not failed
MGHHHHHHSHMVLSQNTKRESGRKVQSGNINAAKTIADIIRTCLGPKSMMKMLLDPMGGIVMTNDGNAILREIQVQHPAAKSMIEISRTQDEEVGDGTTSVIILAGEMLSVAEHFLEQQMHPTVVISAYRKALDDMISTLKKISIPVDISDSDMMLNIINSSITTKAISRWSSLACNIALDAVKMVQFEENGRKEIDIKKYARVEKIPGGIIEDSCVLRGVMINKDVTHPRMRRYIKNPRIVLLDSSLEYKKGESQTDIEITREEDFTRILQMEEEYIQQLCEDIIQLKPDVVITEKGISDLAQHYLMRANITAIRRVRKTDNNRIARACGARIVSRPEELREDDVGTGAGLLEIKKIGDEYFTFITDCKDPKACTILLRGASKEILSEVERNLQDAMQVCRNVLLDPQLVPGGGASEMAVAHALTEKSKAMTGVEQWPYRAVAQALEVIPRTLIQNCGASTIRLLTSLRAKHTQENCETWGVNGETGTLVDMKELGIWEPLAVKLQTYKTAVETAVLLLRIDDIVSGHKKKGDDQSRQGGAPDAGQE | failed
MGHHHHHHSHMVSDIRRFLSAFHEPQVGLIQAAQQLLCDEQAPQRQRLLADLLHNVSQNIAAETRAEDPPWFEGLESRFQSKSGYLRYSCESRIRSYLREVSSYPSTVGAEAQEEFLRVLGSMCQRLRSMQYNGSYFDRGAKGGSRLCTPEGWFSCQGPFDMDSCLSRHSINPYSNRESRILFSTWNLDHIIEKKRTIIPTLVEAIKEQDGREVDWEYFYGLLFTSENLKLVHIVCHKKTTHKLNCDPSRIYKPQTRLKRKQPVRKRQ | failed
MGHHHHHHSHPQSAAKPGLHFIDQHRAALIARVTNVEWLLDALYGKVLTDEQYQAVRAEPTNPSKMRKLFSFTPAWNWTCKDLLLQALRESQSYLVEDLERS | failed
MGHHHHHHSHTGKTTFSATIHALEGGVVADCDVDAPNLHILLKPQILKAEDFIASKKARIMPEKCSSCGLCYDLCRFGAVVAEDGYYVDEKKCEGCAFCFNVCPERAIEMENVKTGDLYVSKTEWGYFVHARLKPGEENTGRLVTEVKNRAKEIAEESNAEFLIVDSAPGVGCPVMASLTGVDAAIIVTEPTVSGLSDMLRILELCEHFRIRPFVVVNKFDLNVNIASEIESYCSENGVEFAGRVPFDKAIPEQIANLNFPFSGKAADKMVEIWKKLRE | not failed
MGHILDSRRCALSVTQQQVLDSLARIKSPRGVALPNANVLSAISASDGKVFFSINVDAAEARAWEAVRAEAEAAVRAIPGATTVMVALTAERKPGSAPPPPPTPSRGTPGVQPVHAHKPPQGGGSPMARQSEIPGVAAVIAVASGKGGVGKSTTALNLALGLRDLGLKVGLLDADIYGPSVPRLTGLRDKPELDGERKMIPLRRFGLAIMSIGFLVEEETAMIWRGPMVMSAVTQMLRDVAWGSLDVLVVDMPPGTGDAQLTLAQNVPLKGAVIVSTPQDLSLIDARRGLAMFRKVNVPVLGIVENMSYFQCPHCGTKSDIFGHGGARHEAEKLGVPFLGEIPLHMAIRATSDAGNPVVDSEPDGPHAAIYRAIAGQVRDQLKGAIAAA | failed
MGHNGIINYEVDVQDNKIEDLKILKHSETSGIFNQVIDKLKQNIITEQSFNVDTISGATVMTQALLKSADKAVTDAGVDVQLEHHHHHH | not failed
MGHSGREERIKDIFKELTSKELTPGLLLTLQKLAQKPNTNLEQFIASCKALTKLSSNNPIIFNELLELLKNKSEEDSTGPKKIAPSINKRKKFKIQLDLDDNEDELDSPVQKKPAPTRTLFKRIDKLKAKQLRQYSPTVKDPSPNSEQQTQNGHAETKDYEPTRSEVVEEDREWYDNDDDYGNLVPEPLSELPEEAKLLPVIRNIDNDDALRNTVQLYPIPLKQRMEWIPPFLSKFALENKVPTSIIIGSISETSSQVSALSMVNPFRNPDSEFSANAKRGSKLVALRRINMEHIQQSRDNTTVLNTAMGEVLGLENNNKAKDKSNQKICDDTALFTPSKDDIKHTKEQLPVFRCRSQLLSLIRENQVVVIIGETGSGKTTQLAQYLYEEGYANDRGKSIVVTQPRRVAAISVAKRVAMEMQVPLGKEVGYSIRFEDVTDSECTKLKFVTDGILLRETLLDDTLDKYSCVIIDEAHERSLNTDILLGFFKILLARRRDLKLIITSATMNAKKFSAFFGNAPQFTIPGRTFPVQTIYTSNPVQDYVEAAVSQAVKIHLANDCSSGDILIFMTGQEDIETTFDTLQEKFLQVYSKKFGTANFEEINDIEILPIYSALPADLQFKIFQDLHGTKRKIIIATNIAETSLTIKGIRYVIDCGYSKLKVYNPKIGLDSLVITPISKANADQRSGRAGRTAPGTAYRLYTEDTFKEDMYLQTIPEIQRTNLSNTLLLLKSLDVTDELSKFPFIDKPPLQTFLSSLYELWFIGAIDTSGQLTPLGLQMAKFPLQPSLSKILLIAVRNGCSDEMLTIVSMLSVPQVFYRPKERQKEADIARNKFFIAKSDHLTLLNVFEQWRANNFSSHWCNKHFVQYKSLVRARDIRDQLLTILKSQKIPVISSGKDWDIIKKCICSGFAHQAAKITGLRNYVHLKTGVSVQLHPTSALHGLGDLPPYVVYHELLMTSKEYICCVTSVDPFWLMEYGGLLYDIKRIKNDQEATTTGLFGEHYEHTLDKVEDDIDINIRRCKDMRDSVIQELKMTDNSNKEDKKQKTKKQNILNGKENSMKPFKRRKPFF | failed
MGIDPVTHRATHKTKRVEATANTFKAVATEWLKEVHQKAVVEEHYNRNVRRLEQHAFPKLGRRPISEIEPSDILEPLRDIAKTGRRETAKRVKTLIGQVFRYTVSTGRAQRDMTADIRGILPALEHHHHHH | failed
MGIFGWRTASLLKKAWQLYQQQHWSKAQQCARQVIEQTPQPEAYYLLGLIAEQLARPLEARTAYEQAIALDPWHAPSHYRLAVVLHALLQQPAAAVPHYQRALEVKPDWVEAHSNLGNAYLDLGDTEGAIACYQKALSLNPDLPTTLYNLGLCLHAQGKLTEATACYEQSLYLEPGQADVHNNLGSAYLELKNYTAATVHFQAALGANPELLVAHYNLGYALHLQGNLAAARDRYQEVLLRDNKHLRTLLQLGQICLAEEDLTGAIGYYQRCLSLDPLNSAAQAGLATALLESGDPQAALPYLRQAVALNPEAEDVRLKFALVLLMLEQFREGWQEYEWRWQQPTGGLRNYPQPRWQGQSLKGKTLFVYSEQGFRDCIQFVRLLPLMAKHAQRIIFEAYPPLVRLCQTLPGIEVMSTEETPPPFDYHTPLLSLPRYLGIDQDHFPKFKPYFPLPTRPPHPLFKVSKPRVGLVWASHSQTRTTVQRSCPLEYFLPLLQEFDVQWYSLQKERSPTEAEQLRQVGVIDCQPYMGDFLDTALLIQQLDAVVTIDTAVAHLAGALGKPLWILLPFVADWRWFWRRSRSPWYPSAELIRQPQRGDWPGAIAQLRSALQAHYRTRCNGIPN | failed
MGIIERIKEIEAEMARTQKNKATEYHLGQLKAKIAKLRTQLLEPPKGASGGGEGFEVTKYGHGRVALIGFPSVGKSTLLTMLTGTHSEAASYEFTTLTCIPGVIHYNDTKIQLLDLPGIIEGASEGKGRGRQVIAVAKSSDLVLMVLDASKSEGHRQILTKELEAVGLRLNKTPPQIYFKKKKTGGISFNTTAPLTHIDEKLCYQILHEYKIHNAEVLFRENATVDDFIDVIEGNRKYIKCVYVYNKIDVVGIDDVDRLSRQPNSIVISCNLKLNLDRLLARMWDEMGLVRVYSKPQGQQPDFDEPFVLSSDRGGCTVEDFCNHVHRTLVKDMKYALVWGTSTRHNPQNCGLSQHLEDEDVVQIVKKKERDEGGRGRFKSHSNAPARIADREKKAPLKQ | failed
MGILDEIMNQEHFDIKTSLDYINEYEKLLPFDSEIHTARAVTYFFGEEYKLAEEHIRKALKFRPNNYDNNFYLANILIAMGEYPDAIKSAVLSVTFLKHFAKIQGYDYINDKLFYYNEQVKTLIEYCIENIKDTNVLEDLKRFFGFIELSIAKFPVCFYGDKWNILVGEYLNKDLNSEYNDYICFYSDTYNNMLSDFQKKLYTVINNSEISSICPIESFKSMTAKEFSLDNGKYIIPIATTEYNQVIDFKIKNTNFKSQQVDPPGFFKYYRVNNGISLNSDKDVIIGKPIKLGFKEKNKKLVFTIFIDALSQKYLLETKYKSMPYTKAFFDKGIIFENCYSAGEWTYPSLTSVVTGLYTTNHHFLHSSAGYKYPDDIDLFSEIMKKNEYFTANISGTYALAPYSSGFRGFDRTVFKNSLGFSDSVIINDAIKHIESFKETNQFVFMSLSDVHKILDDIENYSVNYDIVNQTSLDIETSLSKRSSFVSAWQKYDEEAIKKYDVALRELDRQLKGIYDYILQNYSEEEYLISIFSDHGASFLGKDDFLLKSNITNSVLMVRGSGSASNGNTEYISNMDLIPIILKLANIEHDLSKYDCVLPKTLGGKGREFTYSESIYPGQTYKAMVNNDKYCYILETKGITDIDGTINFDEYSDSVFDKKEDKEVKDNDILEYYREIVYNHIKRNIKY | failed
MGILDRFEKGLENVVNGAFAKAFRSQVEPVELAGALRREADNKAAVVSRGRTLTANHYSIELSPTDFDRLSGLENELRSDLRQVIGDHAVEQAYSFVGPVSVEFVEAEDLDTGMYRVVSSTQRPDGSPAAQPANRGGYDPVSRSHNIVGEGQANSGSRPVPPRRTPEPAPARPAATSRPASAPVRQAAPARSRTISASVTIHGQDYELHQGTNVFGRSSSSSDYVIDDPGVSRRHFEITVERDHAVANDLGSTNGTLLRGRKLTSANLSDGDVLMAGDAEVRYHENEQDAQ | failed
MGINEIIMYIMMFFMLIAAVDRILSQFGGSARFLGKFGKSIEGSGGQFEEGFMAMGALGLAMVGMTALAPVLAHVLGPVIIPVYEMLGANPSMFAGTLLACDMGGFFLAKELAGGDVAAWLYSGLILGSMMGPTIVFSIPVALGIIEPSDRRYLALGVLAGIVTIPIGCIAGGVIAMYSGVQINGQPVEFTFALILMNMIPVLIVAVLVALGLKFIPEKMINGFQIFAKFLVALITIGLAAAVVKFLLGWELIPGLDPIFMAPGDKPGEVMRAIEVIGSISCVLLGAYPMVLLLTRWFEKPLMNVGKLLNVNNIAAAGMVATLANNIPMFGMMKQMDTRGKVINCAFAVSAAFALGDHLGFAAANMNAMIFPMIVGKLIGGVTAIGVAMMLVPKDDAAQVKTEAEAQS | failed
MGISPPLTAVSAFGTDVSGNAFIGAGVATLAVLMVLSAFFSSSEIAMFSIPRHRIDALVEEGRSGADAVAALKSDPHRLLITILVGNNLVNIAMSSIATGLFATSMSQGKAVLAATFGVTALVLLFGESAPKSYAVENSESWALSIAKPLQWSERFLYPLVVLFDYLTRAVNQFTGGRAAIESSYVTRSEIQDMIKTGEREGVIEEDEREMLQRIFRFNNTIAKEVMTPRLDVVAVSKTDTIEAAIQTCTQAGHERVPVYDGELDNVIGVVSLEDLVRESLYGETEDAELDDLIEPTLHVPESKNVDDLLQEMQDERVQLVVVIDEFGTTEGLLTAEDITEEIVGEILDGGEDLPIDSVDEDTVRVRGEVNIEEVNEALNIDLPEGEEFETIAGFIFNRAGRLVEEGEAFRFEDIELTVEHVENTRIMKARVQRLDSAAEADANAEVLTADSTGNGA | failed
MGKDGLSDDQVSSMKEAFMLFDTDGDGKIAPSELGILMRSLGGNPTQAQLKSIIASENLSSPFDFNRFLDLMAKHLKTEPFDRQLRDAFKVLDKEGTGFVAVADLRHILTSIGEKLEPNEFDEWIKEVDVGSDGKIRYEDFIARMVAK | failed
MGKEFFLQHDIVIMYSILFVFIIILKMQFFTWFGMLACMFGIVFYTLNEYMTHRFLFHIKPPKNTFLLKMLRRLHYDHHVYPDDLKLLFLPVWFSIPSFTIYLLIAYGITKSVTITLSFGIGMIIMLLVYEWKHYIAHRPIRPVTKFGRWLKKQHILHHYKNEKFWFGVSNPVFDFIFGTLKDGKDVELSETARNLEKEKKTKVVR | failed
